Data as given in PMC5762521.

Target: T1, Heat shock transcription factor-1 (HSF-1) (human (endogenous in HCT-116)), Q00613
T1 chain: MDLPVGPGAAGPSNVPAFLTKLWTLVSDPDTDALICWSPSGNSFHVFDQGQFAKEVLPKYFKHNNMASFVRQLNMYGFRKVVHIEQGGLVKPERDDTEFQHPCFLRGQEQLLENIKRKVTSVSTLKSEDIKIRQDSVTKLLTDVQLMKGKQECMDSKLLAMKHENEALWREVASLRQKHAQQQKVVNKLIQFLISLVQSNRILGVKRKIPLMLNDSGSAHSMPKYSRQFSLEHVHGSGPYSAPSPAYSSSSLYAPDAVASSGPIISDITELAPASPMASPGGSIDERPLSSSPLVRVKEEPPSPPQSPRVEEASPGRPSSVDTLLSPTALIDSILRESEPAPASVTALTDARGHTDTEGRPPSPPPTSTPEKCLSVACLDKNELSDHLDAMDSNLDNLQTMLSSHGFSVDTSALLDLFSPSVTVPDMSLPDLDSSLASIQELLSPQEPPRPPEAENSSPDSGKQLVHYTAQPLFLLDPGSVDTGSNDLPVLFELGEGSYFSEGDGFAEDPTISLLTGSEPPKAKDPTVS
Experiment: cross-linking; HCT-116 cell lysates (control, heat shock, vitexin-treated); 10 ug protein with 2 mM glutaraldehyde, room temperature, 30 min, stopped with lysine; SDS-PAGE and anti-HSF-1 blot; vitexin treatment said to inhibit oligomerization
Details: remark: other sources report otherwise

stoichiometry N: 3
B1: Heat shock transcription factor-1 (HSF-1), Q00613 1-529 (natural protein)
chain: MDLPVGPGAAGPSNVPAFLTKLWTLVSDPDTDALICWSPSGNSFHVFDQGQFAKEVLPKYFKHNNMASFVRQLNMYGFRKVVHIEQGGLVKPERDDTEFQHPCFLRGQEQLLENIKRKVTSVSTLKSEDIKIRQDSVTKLLTDVQLMKGKQECMDSKLLAMKHENEALWREVASLRQKHAQQQKVVNKLIQFLISLVQSNRILGVKRKIPLMLNDSGSAHSMPKYSRQFSLEHVHGSGPYSAPSPAYSSSSLYAPDAVASSGPIISDITELAPASPMASPGGSIDERPLSSSPLVRVKEEPPSPPQSPRVEEASPGRPSSVDTLLSPTALIDSILRESEPAPASVTALTDARGHTDTEGRPPSPPPTSTPEKCLSVACLDKNELSDHLDAMDSNLDNLQTMLSSHGFSVDTSALLDLFSPSVTVPDMSLPDLDSSLASIQELLSPQEPPRPPEAENSSPDSGKQLVHYTAQPLFLLDPGSVDTGSNDLPVLFELGEGSYFSEGDGFAEDPTISLLTGSEPPKAKDPTVS
